From US20140127814

How the values were obtained:
[1] = system: CCR5 4-finger ZFN-R (ZFP-FokI) (artificial); assay: cell_activity; settings: with ZFN-L and WT CFTR donor in CCR5-expressing HEK293 Flp-In; 17% with CFTR delta508F donor; NHEJ deletions at endogenous CCR5
[2] = system: CCR5 4-finger ZFN-L (ZFP-FokI) (artificial); assay: cell_activity; settings: with ZFN-R and WT CFTR donor in CCR5-expressing HEK293 Flp-In; 17% with CFTR delta508F donor; NHEJ deletions at endogenous CCR5

Sequence | activity (% CCR5-negative cells) [1] | activity (% CCR5-negative cells) [2]
AAACTGCAAAAG (double strand) [CCR5 ZFN-R half-site] | 23 | –
GTCATCCTCATC (double strand) [CCR5 ZFN-L half-site] | – | 23
